Assay results as given in the supplement of paper PMC6757056.
± gives the standard deviation of the averaged measurements.

B1: library; a variant is named by its letters at N, in order (parent)
chain: GCUGUCACCGAGAAACUGUGAAGUAUAUCUUAAACCUGGGCACUUAAAAGAUAUAUGGAGUUAGUAGUGCAACCUGCUCGGUCUGAUGAGUCCNNNNNNGGACGAAACAGC

How the values were obtained:
cyclic di-GMP [1] = variants of: B1; experiment: FACS-Seq fitted mean relative fluorescence mCherry/BFP without ligand (log10 relative fluorescence); HEK293T; ligand: cyclic di-GMP (c-di-GMP-II aptamer); higher = higher reporter protein expression; settings: ligand present: no
How it was run: (§1)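 Fluorescence values are fitted normal means of bin counts along the mCherry/BFP axis. HEK293T libraries lentivirally carrying the ribozyme switch in an mCherry reporter, with an EF1α-BFP marker, were enriched, exposed to ligand or not for 48 h, and sorted into 6 bins. Genomic DNA per bin was PCR-amplified, barcoded and run on MiSeq. Means of log10(mCherry/BFP) were scaled to five spiked-in control ribozymes.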

cyclic di-GMP [2] = variants of: B1; experiment: normalized RNA/DNA level without ligand (relative to sTRSVctl = 100) (log10 (% of sTRSVctl)); HEK293T; ligand: cyclic di-GMP (c-di-GMP-II aptamer); higher = less ribozyme self-cleavage, higher mRNA level; settings: reporter: mCherry (pCS4076), ligand present: no
Procedure: (§2)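 Hammerhead (sTRSV) ribozyme switch libraries with a ligand aptamer grafted on stem I and a randomized N4-6 loop II, cloned into the 3' UTR of mCherry and transiently transfected into HEK293T cells; RNA-Seq 72 h post transfection with ligand added 1 h before transfection; RNA read count / plasmid DNA read count normalized to the non-cleaving sTRSVctl (x100), log10; sequences with >100 DNA reads. FACS-Seq: lentiviral library sorted into 6 bins after 48 h ligand, log-normal fit mean of mCherry/BFP scaled to controls. Printed sequences are partial switch sequences.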

cyclic di-GMP [3] = variants of: B1; experiment: FACS-Seq fitted mean relative fluorescence mCherry/BFP with ligand (log10 relative fluorescence); HEK293T; ligand: cyclic di-GMP (c-di-GMP-II aptamer); ligand concentration (+) FACS-Seq: 1 mM; higher = higher reporter protein expression; settings: ligand present: yes
How it was run: as §1

cyclic di-GMP [4] = variants of: B1; experiment: normalized RNA/DNA level with ligand (relative to sTRSVctl = 100) (log10 (% of sTRSVctl)); HEK293T; ligand: cyclic di-GMP (c-di-GMP-II aptamer); ligand concentration (+) RNA-Seq: 1 mM; higher = less ribozyme self-cleavage, higher mRNA level; settings: reporter: mCherry (pCS4076), ligand present: yes
Procedure: as §2

Variant	FACS-Seq fitted mean (log10) (cyclic di-GMP [1])	normalized RNA/DNA level without ligand (log10) (cyclic di-GMP [2])	FACS-Seq fitted mean (log10) (cyclic di-GMP [3])	normalized RNA/DNA level with ligand (log10) (cyclic di-GMP [4])
CCAAAC	-0.366 ± 0.047	1.6 ± 0.019	-0.0651 ± 0.082	1.75 ± 0.14
CCAAAU	-0.277 ± 0.053	1.52 ± 0.099	-0.0208 ± 0.13	1.71 ± 0.074
ACAACU	-0.512 ± 0.13	1.57 ± 0.037	-0.23 ± 0.091	1.76 ± 0.13
ACCAGU	-0.368 ± 0.064	1.602 ± 0.0077	0.00485 ± 0.036	1.8 ± 0.068
CCAGCA	-0.507 ± 0.13	1.73 ± 0.021	-0.329 ± 0.02	1.86 ± 0.098
CCACCU	-0.368 ± 0.015	1.66 ± 0.02	-0.107 ± 0.015	1.8 ± 0.096
GCAAAU	-0.773 ± 0.072	1.39 ± 0.071	-0.484 ± 0.094	1.61 ± 0.12
GCAAAG	-0.5587 ± 0.0035	1.41 ± 0.099	-0.278 ± 0.024	1.62 ± 0.087
GCAAAC	-0.826 ± 0.056	1.39 ± 0.064	-0.0625 ± 0.35	1.57 ± 0.085
ACCCAC	0.134 ± 0.14	1.69 ± 0.029	0.321 ± 0.024	1.84 ± 0.15
UCAUGU	-0.749 ± 0.0092	1.63 ± 0.073	-0.517 ± 0.028	1.82 ± 0.077
UAUGUA	-0.622 ± 0.023	1.668 ± 0.0069	-0.405 ± 0.035	1.84 ± 0.08
AAUUAA	-0.5829 ± 0.0026	1.51 ± 0.063	-0.251 ± 0.11	1.72 ± 0.074
UAUUCU	-0.432 ± 0.069	1.7467 ± 0.0014	-0.275 ± 0.051	1.89 ± 0.094
ACACUA	-0.717 ± 0.027	1.44 ± 0.038	-0.414 ± 0.055	1.66 ± 0.15
CCCAGA	-0.192 ± 0.068	1.55 ± 0.021	0.0209 ± 0.061	1.74 ± 0.078
CCCCAC	-0.891 ± 0.018	1.75 ± 0.033	-0.665 ± 0.018	1.88 ± 0.097
CCCCAU	-0.0362 ± 0.2	1.68 ± 0.022	0.163 ± 0.051	1.83 ± 0.11
GCAUAC	-0.0759 ± 0.13	1.42 ± 0.19	0.23 ± 0.036	1.6 ± 0.072
GCAUAG	-0.627 ± 0.0092	1.44 ± 0.085	-0.39 ± 0.049	1.66 ± 0.093
UCAUUU	-0.43 ± 0.036	1.637 ± 0.0076	-0.178 ± 0.038	1.78 ± 0.14
UCAUUA	-0.996 ± 0.055	1.5 ± 0.017	-0.732 ± 0.049	1.73 ± 0.15
UCACUU	-0.404 ± 0.091	1.611 ± 0.0095	-0.0521 ± 0.15	1.77 ± 0.14
UCAGAU	-0.378 ± 0.029	1.49 ± 0.067	-0.0266 ± 0.08	1.67 ± 0.078

Variant	FACS-Seq fitted mean (log10) (cyclic di-GMP [1])	normalized RNA/DNA level without ligand (log10) (cyclic di-GMP [2])	FACS-Seq fitted mean (log10) (cyclic di-GMP [3])	normalized RNA/DNA level with ligand (log10) (cyclic di-GMP [4])
GCACAA	-0.339 ± 0.051	1.41 ± 0.051	0.0543 ± 0.037	1.62 ± 0.11
GCACAC	-0.421 ± 0.06	1.55 ± 0.034	0.00625 ± 0.1	1.69 ± 0.13
GCACAU	-0.28 ± 0.043	1.47 ± 0.055	-0.00874 ± 0.0028	1.69 ± 0.11
GAUUAA	-0.0108 ± 0.066	1.55 ± 0.057	0.211 ± 0.1	1.74 ± 0.087
GAUUGG	-0.22 ± 0.02	1.63 ± 0.02	0.0818 ± 0.059	1.75 ± 0.093
GAUUGA	0.00942 ± 0.089	1.5 ± 0.084	0.252 ± 0.042	1.7 ± 0.072
GCAGCU	-0.242 ± 0.076	1.65 ± 0.018	-0.0553 ± 0.039	1.78 ± 0.11
GCCAUU	-0.372 ± 0.0056	1.58 ± 0.016	-0.161 ± 0.13	1.78 ± 0.13
GCCAUA	0.0302 ± 0.039	1.55 ± 0.05	0.269 ± 0.026	1.72 ± 0.069
GCAUGU	-0.424 ± 0.036	1.49 ± 0.073	-0.147 ± 0.022	1.69 ± 0.072
UCAAAA	-0.275 ± 0.04	1.46 ± 0.037	-0.0447 ± 0.01	1.68 ± 0.15
GCCACC	-0.0159 ± 0.27	1.682 ± 0.011	0.0347 ± 0.1	1.84 ± 0.095
ACCACC	-0.899 ± 0.064	1.6 ± 0.088	-0.618 ± 0.019	1.76 ± 0.097
ACAGUU	-0.579 ± 0.027	1.32 ± 0.13	-0.312 ± 0.09	1.5 ± 0.073
ACAUGG	-0.46 ± 0.077	1.44 ± 0.11	-0.227 ± 0.031	1.61 ± 0.11
GCCGAA	-0.291 ± 0.03	1.45 ± 0.11	-0.0327 ± 0.018	1.72 ± 0.091
GAUGGA	-0.376 ± 0.014	1.42 ± 0.14	-0.11 ± 0.031	1.61 ± 0.097
GCAAUG	-0.186 ± 0.0033	1.45 ± 0.14	0.131 ± 0.072	1.64 ± 0.069
GCAAUA	-0.419 ± 0.034	1.41 ± 0.079	-0.0479 ± 0.074	1.63 ± 0.058
GCAAUC	-0.612 ± 0.083	1.27 ± 0.1	-0.425 ± 0.016	1.52 ± 0.1
ACCAUA	-0.294 ± 0.15	1.51 ± 0.065	0.0129 ± 0.043	1.71 ± 0.11
GCAACA	-0.823 ± 0.12	1.55 ± 0.048	-0.56 ± 0.014	1.75 ± 0.12
UAUUAC	-0.992 ± 0.17	1.77 ± 0.039	-0.849 ± 0.071	1.87 ± 0.095
UAUUAA	-0.387 ± 0.054	1.7 ± 0.039	-0.126 ± 0.13	1.87 ± 0.12

Variant	FACS-Seq fitted mean (log10) (cyclic di-GMP [1])	normalized RNA/DNA level without ligand (log10) (cyclic di-GMP [2])	FACS-Seq fitted mean (log10) (cyclic di-GMP [3])	normalized RNA/DNA level with ligand (log10) (cyclic di-GMP [4])
CCACUU	-0.246 ± 0.072	1.5 ± 0.069	-0.0246 ± 0.1	1.69 ± 0.078
CCACUA	-0.725 ± 0.038	1.43 ± 0.13	-0.348 ± 0.019	1.66 ± 0.067
UCAGCG	-0.403 ± 0.12	1.83 ± 0.077	-0.141 ± 0.05	1.88 ± 0.099
CCCGAA	-0.464 ± 0.055	1.39 ± 0.023	-0.0882 ± 0.039	1.64 ± 0.13
ACCCUG	-0.354 ± 0.046	1.67 ± 0.022	0.0314 ± 0.09	1.83 ± 0.097
ACCCUC	-0.504 ± 0.046	1.784 ± 0.015	-0.217 ± 0.028	1.91 ± 0.057
GAUGUA	-0.456 ± 0.056	1.662 ± 0.0051	-0.166 ± 0.016	1.77 ± 0.11
UCAGUC	-0.277 ± 0.12	1.697 ± 0.0098	-0.0482 ± 0.1	1.85 ± 0.082
UCAGUA	-0.6 ± 0.076	1.33 ± 0.2	-0.299 ± 0.076	1.59 ± 0.082
UCAGUG	-0.446 ± 0.02	1.669 ± 0.0062	-0.142 ± 0.12	1.83 ± 0.15
CAUUUA	-0.573 ± 0.012	1.32 ± 0.088	-0.291 ± 0.0053	1.51 ± 0.1
UCCCGU	-0.0215 ± 0.15	1.72 ± 0.022	0.3 ± 0.015	1.83 ± 0.15
AAUGUG	0.000386 ± 0.089	1.58 ± 0.051	0.206 ± 0.026	1.76 ± 0.09
AAUGUU	-0.4781 ± 0.0039	1.66 ± 0.034	-0.144 ± 0.16	1.82 ± 0.076
CCAGGC	-1.034 ± 0.0013	1.636 ± 0.0075	-0.924 ± 0.11	1.76 ± 0.15
GCAAGC	-0.589 ± 0.17	1.63 ± 0.026	-0.514 ± 0.15	1.81 ± 0.14
GCCCCU	0.163 ± 0.17	1.761 ± 0.0048	0.336 ± 0.019	1.89 ± 0.077
GCCCCA	-0.109 ± 0.025	1.72 ± 0.024	0.138 ± 0.041	1.86 ± 0.085
ACACAG	-0.515 ± 0.016	1.44 ± 0.084	-0.191 ± 0.074	1.68 ± 0.11
CCCAUU	-0.0438 ± 0.1	1.637 ± 0.0022	0.204 ± 0.023	1.79 ± 0.13
CCCAUA	-0.471 ± 0.0071	1.4 ± 0.11	-0.164 ± 0.0037	1.65 ± 0.09
GCAGUA	-0.229 ± 0.042	1.59 ± 0.035	0.0693 ± 0.0072	1.7 ± 0.12
CCAUAA	-0.533 ± 0.16	1.44 ± 0.14	-0.252 ± 0.0063	1.67 ± 0.079
GCAUUG	-0.56 ± 0.071	1.5 ± 0.13	-0.211 ± 0.025	1.71 ± 0.052
